Data from PMC9456107, “DNA Motifs and an Accessory CRISPR Factor Determine Cas1 Binding and Integration Activity in Sulfolobus islandicus”.

Tests used:
PfuCas1 = target: T1, PfuCas1 (Pyrococcus furiosus COM1, UniProt I6TWX9 1-322); assay: EMSA; EMSA on 12% native PAGE, 0.3 uM FAM probe (0.5 uM P1 in Fig S3); buffer, pH and temperature not stated (refers to earlier work); conditions: protein: recombinant, tags: C-terminal His, chain copies: 2, label: 5'-FAM
T1 sequence: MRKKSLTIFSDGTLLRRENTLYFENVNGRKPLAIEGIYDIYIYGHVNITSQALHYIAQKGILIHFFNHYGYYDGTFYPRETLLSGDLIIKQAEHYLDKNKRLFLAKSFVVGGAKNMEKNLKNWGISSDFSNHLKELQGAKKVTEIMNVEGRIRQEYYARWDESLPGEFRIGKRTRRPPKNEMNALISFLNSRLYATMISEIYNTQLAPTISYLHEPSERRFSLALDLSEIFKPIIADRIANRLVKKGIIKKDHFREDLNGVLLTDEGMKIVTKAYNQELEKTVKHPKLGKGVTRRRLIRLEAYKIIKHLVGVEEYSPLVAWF

Cas2 (SisCas2) = target: T2, Cas2 (SisCas2) (Sulfolobus islandicus REY15A, UniProt F0NH44 1-89); assay: EMSA; 3.3 and 6.7 uM Cas2; EMSA on 12% native PAGE, 0.3 uM FAM probe (0.5 uM P1 in Fig S3); buffer, pH and temperature not stated (refers to earlier work); conditions: protein: recombinant; tags: C-terminal His; chain copies: 2; label: 5'-FAM on sense strand; mixture of blunt duplex, ssDNA and hairpin
T2 sequence: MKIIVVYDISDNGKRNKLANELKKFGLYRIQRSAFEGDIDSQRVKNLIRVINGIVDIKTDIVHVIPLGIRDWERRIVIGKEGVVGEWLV

B1: Pfu-WT leader-repeat ssDNA (structured_DNA)
DNA: CTCCGTAGGAGGATTGGGGCAAAAAAGCCCCCTGTTCCAATAAGACTACAAAAGAATTGAAAG
binding result (PfuCas1; hairpin): binds

TCCTCCACTTTCCCCGTAAGGGGTCGGAGGGGGCGGTCTTTCCC (structured_DNA) [Syn-S leader ssDNA]
binding result (PfuCas1; two predicted hairpins): binds

B2: leader-proximal WT S/A annealed probe (5:1 or unspecified ratio, contains hairpin ssDNA) (mixed)
DNA 1: CAAATAGAGGGTTAAAAAACCCTCAGCTAATC
DNA 2: GATTAGCTGAGGGTTTTTTAACCCTCTATTTG
binding result (Cas2 (SisCas2)): no binding
